B1: Cilia- and flagella-associated protein 418 (Homo sapiens), Q96NL8 (parent)
chain: MAEDLDELLDEVESKFCTPDLLRRGMVEQPKGCGGGTHSSDRNQAKAKETLRSTETFKKEDDLDSLINEILEEPNLDKKPSKLKSKSSGNTSVRASIEGLGKSCSPVYLGGSSIPCGIGTNISWRACDHLRCIACDFLVVSYDDYMWDKSCDYLFFRNNMPEFHKLKAKLIKKKGTRAYACQCSWRTIEEVTDLQTDHQLRWVCGKH
partner: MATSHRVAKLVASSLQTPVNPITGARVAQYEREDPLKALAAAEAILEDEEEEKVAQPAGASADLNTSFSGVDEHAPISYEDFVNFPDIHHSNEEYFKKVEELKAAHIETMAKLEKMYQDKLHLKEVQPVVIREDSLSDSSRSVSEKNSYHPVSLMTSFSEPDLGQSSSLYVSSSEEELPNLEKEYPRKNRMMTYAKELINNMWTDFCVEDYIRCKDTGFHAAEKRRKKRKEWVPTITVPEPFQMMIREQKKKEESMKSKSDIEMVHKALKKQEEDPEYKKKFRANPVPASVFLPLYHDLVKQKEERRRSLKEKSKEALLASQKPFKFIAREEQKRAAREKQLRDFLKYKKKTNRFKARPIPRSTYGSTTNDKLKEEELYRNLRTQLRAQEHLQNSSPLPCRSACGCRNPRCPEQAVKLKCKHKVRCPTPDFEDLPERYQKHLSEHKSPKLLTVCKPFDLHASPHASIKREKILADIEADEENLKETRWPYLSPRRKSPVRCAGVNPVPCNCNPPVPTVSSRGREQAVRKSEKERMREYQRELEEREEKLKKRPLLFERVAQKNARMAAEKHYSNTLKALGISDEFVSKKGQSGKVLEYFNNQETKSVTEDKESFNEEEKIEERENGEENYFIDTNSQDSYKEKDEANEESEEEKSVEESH

Variants of: B1
Details: with FAM161A

effect of a mutation on the interaction | Variant
with no effect | Q182R
with no effect | R177W
